Assay results reported in patent publication US20210388087A1 (Chugai, published 2021).
Residue numbers refer to the chain shown, from its start. Numbers in names are those of the source.

B1: H183/L072 VH V100iL (antibody, name in Kabat numbering, V domains shown)
VH: QVQLVESGGGLVQPGRSLRLSCAASGFTFSNAWMHWVRQAPGKGLEWVAQIKDKGNAYAAYYAPSVKGRFTISRDDSKNSIYLQMNSLKTEDTAVYYCHYVHYASASTVLPAFGLDAWGQGTTVTVSS
VL: DIVMTQSPLSLPVTPGEPASISCQASQELVHMNRNTYLHWYQQKPGQAPRLLIYKVSNRFPGVPDRFSGSGSGTDFTLKISRVEAEDVGVYYCAQGTSVPFTFGQGTKLEIK
B2: H183/L072 VH Y58G (antibody, name in Kabat numbering, V domains shown)
VH: B1 VH with Y61G, L115V
VL: B1 VL
B3: H183/L072 VH Y58T (antibody, name in Kabat numbering, V domains shown)
VH: B1 VH with Y61T, L115V
VL: B1 VL
B4: H183/L072 VH Y59R (antibody, name in Kabat numbering, V domains shown)
VH: B1 VH with Y62R, L115V
VL: B1 VL
B5: H183/L072 VH Y59I (antibody, name in Kabat numbering, V domains shown)
VH: B1 VH with Y62I, L115V
VL: B1 VL
B6: H183/L072 VH Y58D (antibody, name in Kabat numbering, V domains shown)
VH: B1 VH with Y61D, L115V
VL: B1 VL
B7: H183/L072 VH Y58S (antibody, name in Kabat numbering, V domains shown)
VH: B1 VH with Y61S, L115V
VL: B1 VL
B8: H183/L072 VH Y58V (antibody, name in Kabat numbering, V domains shown)
VH: B1 VH with Y61V, L115V
VL: B1 VL
B9: H183/L072 VH Y55E (antibody, name in Kabat numbering, V domains shown)
VH: B1 VH with Y58E, L115V
VL: B1 VL
B10: H183/L072 VH Y59A (antibody, name in Kabat numbering, V domains shown)
VH: B1 VH with Y62A, L115V
VL: B1 VL
B11: H183/L072 VH Y58W (antibody, name in Kabat numbering, V domains shown)
VH: B1 VH with Y61W, L115V
VL: B1 VL
B12: H183/L072 VH Y55D (antibody, name in Kabat numbering, V domains shown)
VH: B1 VH with Y58D, L115V
VL: B1 VL
B13: H183/L072 VH Y58H (antibody, name in Kabat numbering, V domains shown)
VH: B1 VH with Y61H, L115V
VL: B1 VL
B14: H183/L072 VH Y59F (antibody, name in Kabat numbering, V domains shown)
VH: B1 VH with Y62F, L115V
VL: B1 VL
B15: H183/L072 VH Y59N (antibody, name in Kabat numbering, V domains shown)
VH: B1 VH with Y62N, L115V
VL: B1 VL
B16: H183/L072 VH Y59P (antibody, name in Kabat numbering, V domains shown)
VH: B1 VH with Y62P, L115V
VL: B1 VL
B17: H183/L072 VH Y59G (antibody, name in Kabat numbering, V domains shown)
VH: B1 VH with Y62G, L115V
VL: B1 VL
B18: H183/L072 VH Y58I (antibody, name in Kabat numbering, V domains shown)
VH: B1 VH with Y61I, L115V
VL: B1 VL
B19: H183/L072 VH W33Y (antibody, name in Kabat numbering, V domains shown)
VH: B1 VH with W33Y, L115V
VL: B1 VL
B20: H183/L072 VH Y58E (antibody, name in Kabat numbering, V domains shown)
VH: B1 VH with Y61E, L115V
VL: B1 VL
B21: H183/L072 VH Y55F (antibody, name in Kabat numbering, V domains shown)
VH: B1 VH with Y58F, L115V
VL: B1 VL
B22: H183/L072 VH W33L (antibody, name in Kabat numbering, V domains shown)
VH: B1 VH with W33L, L115V
VL: B1 VL
B23: H183/L072 VH Y59Q (antibody, name in Kabat numbering, V domains shown)
VH: B1 VH with Y62Q, L115V
VL: B1 VL
B24: H183/L072 VH Y59D (antibody, name in Kabat numbering, V domains shown)
VH: B1 VH with Y62D, L115V
VL: B1 VL
B25: H183/L072 VH Y59K (antibody, name in Kabat numbering, V domains shown)
VH: B1 VH with Y62K, L115V
VL: B1 VL
B26: H183/L072 VH Y58P (antibody, name in Kabat numbering, V domains shown)
VH: B1 VH with Y61P, L115V
VL: B1 VL
B27: H183/L072 VH Y55L (antibody, name in Kabat numbering, V domains shown)
VH: B1 VH with Y58L, L115V
VL: B1 VL
B28: H183/L072 VH Y58K (antibody, name in Kabat numbering, V domains shown)
VH: B1 VH with Y61K, L115V
VL: B1 VL
B29: H183/L072 VH Y58L (antibody, name in Kabat numbering, V domains shown)
VH: B1 VH with Y61L, L115V
VL: B1 VL
B30: H183/L072 VH Y59E (antibody, name in Kabat numbering, V domains shown)
VH: B1 VH with Y62E, L115V
VL: B1 VL
B31: H183/L072 VH Y55A (antibody, name in Kabat numbering, V domains shown)
VH: B1 VH with Y58A, L115V
VL: B1 VL
B32: H183/L072 VH V100iM (antibody, name in Kabat numbering, V domains shown)
VH: B1 VH with L115M
VL: B1 VL
B33: H183/L072 VH Y58R (antibody, name in Kabat numbering, V domains shown)
VH: B1 VH with Y61R, L115V
VL: B1 VL
B34: H183/L072 VH Y59H (antibody, name in Kabat numbering, V domains shown)
VH: B1 VH with Y62H, L115V
VL: B1 VL
B35: H183/L072 VH Y58N (antibody, name in Kabat numbering, V domains shown)
VH: B1 VH with Y61N, L115V
VL: B1 VL
B36: H183/L072 VH Y55Q (antibody, name in Kabat numbering, V domains shown)
VH: B1 VH with Y58Q, L115V
VL: B1 VL
B37: H183/L072 VH Y55M (antibody, name in Kabat numbering, V domains shown)
VH: B1 VH with Y58M, L115V
VL: B1 VL
B38: H183/L072 VH Y55H (antibody, name in Kabat numbering, V domains shown)
VH: B1 VH with Y58H, L115V
VL: B1 VL
B39: H183/L072 VH Y58A (antibody, name in Kabat numbering, V domains shown)
VH: B1 VH with Y61A, L115V
VL: B1 VL
B40: H183/L072 VH Y55N (antibody, name in Kabat numbering, V domains shown)
VH: B1 VH with Y58N, L115V
VL: B1 VL
B41: H183/L072 VH Y58M (antibody, name in Kabat numbering, V domains shown)
VH: B1 VH with Y61M, L115V
VL: B1 VL
B42: H183/L072 VH Y59L (antibody, name in Kabat numbering, V domains shown)
VH: B1 VH with Y62L, L115V
VL: B1 VL
B43: H183/L072 VH Y58Q (antibody, name in Kabat numbering, V domains shown)
VH: B1 VH with Y61Q, L115V
VL: B1 VL
B44: H183/L072 VH Y58F (antibody, name in Kabat numbering, V domains shown)
VH: B1 VH with Y61F, L115V
VL: B1 VL
B45: H183/L072 VH Y59M (antibody, name in Kabat numbering, V domains shown)
VH: B1 VH with Y62M, L115V
VL: B1 VL
B46: H183/L072 VH Y55G (antibody, name in Kabat numbering, V domains shown)
VH: B1 VH with Y58G, L115V
VL: B1 VL
B47: H183/L072 VH Y55K (antibody, name in Kabat numbering, V domains shown)
VH: B1 VH with Y58K, L115V
VL: B1 VL

biological target: T1, Human CD137 ECD (human); assay: single mutant vs template dBBDu183H
T1 construct: also called 4-1BB
T1 sequence (chain, as listed by the source limits assumed): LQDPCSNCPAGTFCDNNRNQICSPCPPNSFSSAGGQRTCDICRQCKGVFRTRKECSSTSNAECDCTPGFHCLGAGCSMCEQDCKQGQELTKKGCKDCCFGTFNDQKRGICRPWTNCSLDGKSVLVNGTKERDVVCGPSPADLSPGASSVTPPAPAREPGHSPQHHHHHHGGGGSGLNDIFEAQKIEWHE

Row | fold change of affinity [fold] | Binder
1 | 0.1 | B1
2 | 0.2 | B2
3 | 0.3 | B3
4 | 0.9 | B4
5 | 0.7 | B5
6 | 0.1 | B6
7 | 0.3 | B7
8 | 0.2 | B8
9 | 0.4 | B9
10 | 0.7 | B10
11 | 0.2 | B11
12 | 0.4 | B12
13 | 0.3 | B13
14 | 1.5 | B14
15 | 0.8 | B15
16 | 0.3 | B16
17 | 0.9 | B17
18 | 0.2 | B18
19 | 0 | B19
20 | 0.3 | B20
21 | 0.5 | B21
22 | 0 | B22
23 | 0.8 | B23
24 | 0.8 | B24

Row | fold change of affinity [fold] | Binder
25 | 1 | B25
26 | 0.2 | B26
27 | 0.3 | B27
28 | 0.3 | B28
29 | 0.4 | B29
30 | 0.7 | B30
31 | 0.3 | B31
32 | 0 | B32
33 | 0.4 | B33
34 | 0.8 | B34
35 | 0.3 | B35
36 | 0.2 | B36
37 | 0.4 | B37
38 | 0.4 | B38
39 | 0.2 | B39
40 | 0.7 | B40
41 | 0.6 | B41
42 | 1.1 | B42
43 | 0.4 | B43
44 | 0.9 | B44
45 | 1.1 | B45
46 | 0.3 | B46
47 | 0.2 | B47
